In paper PMC12000434 (2025) one finds percent of parent data, which are given here for five variants.

To fix the notation:
B1: FLAG-NDP52^WT [human] / HA-LC3C [human] (parent complex)
chain 1: MEETIKDPPTSAVLLDHCHFSQVIFNSVEKFYIPGGDVTCHYTFTQHFIPRRKDWIGIFRVGWKTTREYYTFMWVTLPIDLNNKSAKQQEVQFKAYYLPKDDEYYQFCYVDEDGVVRGASIPFQFRPENEEDILVVTTQGEVEEIEQHNKELCKENQELKDSCISLQKQNSDMQAELQKKQEELETLQSINKKLELKVKEQKDYWETELLQLKEQNQKMSSENEKMGIRVDQLQAQLSTQEKEMEKLVQGDQDKTEQLEQLKKENDHLFLSLTEQRKDQKKLEQTVEQMKQNETTAMKKQQELMDENFDLSKRLSENEIICNALQRQKERLEGENDLLKRENSRLLSYMGLDFNSLPYQVPTSDEGGARQNPGLAYGNPYSGIQESSSPSPLSIKKCPICKADDICDHTLEQQQMQPLCFNCPICDKIFPATEKQIFEDHVFCHSL
chain 2: MPPPQKIPSVRPFKQRKSLAIRQEEVAGIRAKFPNKIPVVVERYPRETFLPPLDKTKFLVPQELTMTQFLSIIRSRMVLRATEAFYLLVNNKSLVSMSATMAEIYRDYKDEDGFVYMTYASQETFG

In the first assay the parent is B1. The assay is described as follows: co-immunoprecipitation (anti-HA beads), Western blot densitometry; lysates of SH-SY5Y cells; three independent experiments; parent: 100; read off a plot.
As to chain 1 MEETIKDPPTSAVLLDHCHFSQVIFNSVEKFYIPGGDVTCHYTFTQHFIPRRKDWIGIFRVGWKTTREYYTFMWVTLPIDLNNKSAKQQEVQFKAYYLPKDDEYYQFCYVDEDGVVRGASIPFQFRPENEEDILVSTTQEEVEEIEQHNKELCKENQELKDSCISLQKQNSDMQAELQKKQEELETLQSINKKLELKVKEQKDYWETELLQLKEQNQKMSSENEKMGIRVDQLQAQLSTQEKEMEKLVQGDQDKTEQLEQLKKENDHLFLSLTEQRKDQKKLEQTVEQMKQNETTAMKKQQELMDENFDLSKRLSENEIICNALQRQKERLEGENDLLKRENSRLLSYMGLDFNSLPYQVPTSDEGGARQNPGLAYGNPYSGIQESSSPSPLSIKKCPICKADDICDHTLEQQQMQPLCFNCPICDKIFPATEKQIFEDHVFCHSL [chain 1 V136S, chain 1 G140E], the percent of parent is ~53 % of WT.

For the variant chain 1 MEETIKDPPTSAVLLDHCHFSQVIFNSVEKFYIPGGDVTCHYTFTQHFIPRRKDWIGIFRVGWKTTREYYTFMWVTLPIDLNNKSAKQQEVQFKAYYLPKDDEYYQFCYVDEDGVVRGASIPFQFRPENEEDILVVTTQEEVEEIEQHNKELCKENQELKDSCISLQKQNSDMQAELQKKQEELETLQSINKKLELKVKEQKDYWETELLQLKEQNQKMSSENEKMGIRVDQLQAQLSTQEKEMEKLVQGDQDKTEQLEQLKKENDHLFLSLTEQRKDQKKLEQTVEQMKQNETTAMKKQQELMDENFDLSKRLSENEIICNALQRQKERLEGENDLLKRENSRLLSYMGLDFNSLPYQVPTSDEGGARQNPGLAYGNPYSGIQESSSPSPLSIKKCPICKADDICDHTLEQQQMQPLCFNCPICDKIFPATEKQIFEDHVFCHSL [chain 1 G140E], the percent of parent is ~190 % of WT.

As to chain 1 MEETIKDPPTSAVLLDHCHFSQVIFNSVEKFYIPGGDVTCHYTFTQHFIPRRKDWIGIFRVGWKTTREYYTFMWVTLPIDLNNKSAKQQEVQFKAYYLPKDDEYYQFCYVDEDGVVRGASIPFQFRPENEEDILVSTTQGEVEEIEQHNKELCKENQELKDSCISLQKQNSDMQAELQKKQEELETLQSINKKLELKVKEQKDYWETELLQLKEQNQKMSSENEKMGIRVDQLQAQLSTQEKEMEKLVQGDQDKTEQLEQLKKENDHLFLSLTEQRKDQKKLEQTVEQMKQNETTAMKKQQELMDENFDLSKRLSENEIICNALQRQKERLEGENDLLKRENSRLLSYMGLDFNSLPYQVPTSDEGGARQNPGLAYGNPYSGIQESSSPSPLSIKKCPICKADDICDHTLEQQQMQPLCFNCPICDKIFPATEKQIFEDHVFCHSL [chain 1 V136S], the percent of parent is ~53 % of WT.

The variants in the next assay derive from B1. The assay is described as follows: co-immunoprecipitation, Western blot densitometry; lysates of SH-SY5Y cells; three independent experiments; blot labelled IP:HA(LC3C); parent: 100; read off a plot. In general terms: Immunoblotting shows a protein as a band on a membrane.
Take chain 1 MEETIKDPPTSAVLLDHCHFSQVIFNSVEKFYIPGGDVTCHYTFTQHFIPRRKDWIGIFRVGWKTTREYYTFMWVTLPIDLNNKSAKQQEVQFKAYYLPKDDEYYQFCYVDEDGVVRGASIPFQFRPENEEDILVVTTQGEVEEIEQHNKELCKENQELKDSCISLQKQNSDMQAELQKKQEELETLQSINKKLELKVKEQKAAAATELLQLKEQNQKMSSENEKMGIRVDQLQAQLSTQEKEMEKLVQGDQDKTEQLEQLKKENDHLFLSLTEQRKDQKKLEQTVEQMKQNETTAMKKQQELMDENFDLSKRLSENEIICNALQRQKERLEGENDLLKRENSRLLSYMGLDFNSLPYQVPTSDEGGARQNPGLAYGNPYSGIQESSSPSPLSIKKCPICKADDICDHTLEQQQMQPLCFNCPICDKIFPATEKQIFEDHVFCHSL [chain 1 D203A, chain 1 Y204A, chain 1 W205A, chain 1 E206A]: the percent of parent is ~130 % of WT.

Consider chain 1 MEETIKDPPTSAVLLDHCHFSQVIFNSVEKFYIPGGDVTCHYTFTQHFIPRRKDWIGIFRVGWKTTREYYTFMWVTLPIDLNNKSAKQQEVQFKAYYLPKDDEYYQFCYVDEDGVVRGASIPFQFRPENEEDILVVTTQEEVEEIEQHNKELCKENQELKDSCISLQKQNSDMQAELQKKQEELETLQSINKKLELKVKEQKDYWETELLQLKEQNQKMSSENEKMGIRVDQLQAQLSTQEKEMEKLVQGDQDKTEQLEQLKKENDHLFLSLTEQRKDQKKLEQTVEQMKQNETTAMKKQQELMDENFDLSKRLSENEIICNALQRQKERLEGENDLLKRENSRLLSYMGLDFNSLPYQVPTSDEGGARQNPGLAYGNPYSGIQESSSPSPLSIKKCPICKADDICDHTLEQQQMQPLCFNCPICDKIFPATEKQIFEDHVFCHSL [chain 1 G140E], for which the percent of parent is ~240 % of WT.

chain 1 MEETIKDPPTSAVLLDHCHFSQVIFNSVEKFYIPGGDVTCHYTFTQHFIPRRKDWIGIFRVGWKTTREYYTFMWVTLPIDLNNKSAKQQEVQFKAYYLPKDDEYYQFCYVDEDGVVRGASIPFQFRPENEEDILVVTTQEEVEEIEQHNKELCKENQELKDSCISLQKQNSDMQAELQKKQEELETLQSINKKLELKVKEQKAAAATELLQLKEQNQKMSSENEKMGIRVDQLQAQLSTQEKEMEKLVQGDQDKTEQLEQLKKENDHLFLSLTEQRKDQKKLEQTVEQMKQNETTAMKKQQELMDENFDLSKRLSENEIICNALQRQKERLEGENDLLKRENSRLLSYMGLDFNSLPYQVPTSDEGGARQNPGLAYGNPYSGIQESSSPSPLSIKKCPICKADDICDHTLEQQQMQPLCFNCPICDKIFPATEKQIFEDHVFCHSL [chain 1 G140E, chain 1 D203A, chain 1 Y204A, chain 1 W205A, chain 1 E206A]: the percent of parent is ~230 % of WT.
